Publication PMC9482650, “Quantitative fragmentomics allow affinity mapping of interactomes” (Nature Communications, 2022)

T1: DLG3_1, Q92796
T1 sequence (Q92796 125-227, limits assumed, looked up): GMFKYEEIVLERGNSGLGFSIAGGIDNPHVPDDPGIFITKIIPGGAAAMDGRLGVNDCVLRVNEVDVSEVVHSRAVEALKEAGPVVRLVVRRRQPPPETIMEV

T2: DLG3_2, Q92796
T2 sequence (Q92796 221-321, limits assumed, looked up): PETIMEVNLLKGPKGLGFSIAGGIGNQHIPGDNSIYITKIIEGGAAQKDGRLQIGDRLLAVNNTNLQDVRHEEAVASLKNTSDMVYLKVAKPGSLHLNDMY

T3: FRMPD1, Q5SYB0
T3 sequence (Q5SYB0 52-145, limits assumed, looked up): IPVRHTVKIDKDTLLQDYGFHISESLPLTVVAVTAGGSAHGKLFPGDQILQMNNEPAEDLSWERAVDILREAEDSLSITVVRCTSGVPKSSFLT

T4: GRIP1_5, Q9Y3R0
T4 sequence (Q9Y3R0 568-668, limits assumed, looked up): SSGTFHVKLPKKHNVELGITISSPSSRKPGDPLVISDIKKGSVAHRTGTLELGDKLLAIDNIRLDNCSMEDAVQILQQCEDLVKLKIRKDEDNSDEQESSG

T5: LNX2_2, Q8N448
T5 sequence (Q8N448 334-432, limits assumed, looked up): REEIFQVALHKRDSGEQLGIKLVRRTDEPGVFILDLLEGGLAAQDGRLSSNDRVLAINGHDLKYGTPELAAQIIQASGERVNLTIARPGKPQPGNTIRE

T6: MPDZ_12, O75970
T6 sequence (O75970 1857-1958, limits assumed, looked up): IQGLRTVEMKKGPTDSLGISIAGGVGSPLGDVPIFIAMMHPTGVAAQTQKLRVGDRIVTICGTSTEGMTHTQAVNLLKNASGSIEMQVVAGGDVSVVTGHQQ

T7: PARD3B_1, Q8TEW8
T7 sequence (Q8TEW8 196-299, limits assumed, looked up): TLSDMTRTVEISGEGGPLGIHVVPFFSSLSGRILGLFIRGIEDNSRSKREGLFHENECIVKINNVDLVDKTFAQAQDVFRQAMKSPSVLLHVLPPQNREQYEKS

T8: RAPGEF6, Q8TEU7
T8 sequence (Q8TEU7 525-625, limits assumed, looked up): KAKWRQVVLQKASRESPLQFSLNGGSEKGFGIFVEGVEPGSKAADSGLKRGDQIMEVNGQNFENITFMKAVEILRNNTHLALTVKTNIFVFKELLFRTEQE

T9: SNTB1, Q13884
T9 sequence (Q13884 107-205, limits assumed, looked up): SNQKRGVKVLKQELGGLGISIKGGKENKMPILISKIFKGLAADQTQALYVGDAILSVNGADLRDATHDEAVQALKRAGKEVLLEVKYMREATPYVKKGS

T10: TX1BP3, O14907
T10 sequence (O14907 10-122, limits assumed, looked up): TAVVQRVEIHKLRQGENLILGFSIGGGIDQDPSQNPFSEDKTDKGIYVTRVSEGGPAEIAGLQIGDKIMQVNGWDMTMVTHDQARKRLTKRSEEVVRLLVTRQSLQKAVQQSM

B1: FZD8, Q9H461 (peptide)
chain: YPKQMPLSQV
B2: NOS1AP, O75052 (peptide)
chain: GDGLDDEIAV
B3: UQCRC2, P22695 (peptide)
chain: LGHTPFVDEL
B4: SMCHD1, A6NHR9 (peptide)
chain: QNRIITKTDV

Legend:
Test in all cases: holdup assay
Parameters in all cases: key: below the threshold = too weak to quantify, mostly under pKd 3.1 to 4
Conditions in all cases: plain residues with an end cap or a label only (N-terminal biotin on a linker: ado-ado)
DLG3_1, Q92796 = biological target: T1, DLG3_1, Q92796
DLG3_2, Q92796 = biological target: T2, DLG3_2, Q92796
DLG4_1, P78352 = biological target: DLG4_1, P78352
Chain of DLG4_1, P78352 (P78352 62-152): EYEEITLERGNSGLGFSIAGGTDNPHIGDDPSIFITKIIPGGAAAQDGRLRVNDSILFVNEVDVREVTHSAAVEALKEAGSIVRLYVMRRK

FRMPD1, Q5SYB0 = biological target: T3, FRMPD1, Q5SYB0
FRMPD2_1, Q68DX3 = biological target: FRMPD2_1, Q68DX3
Chain of FRMPD2_1, Q68DX3 (Q68DX3 770-861): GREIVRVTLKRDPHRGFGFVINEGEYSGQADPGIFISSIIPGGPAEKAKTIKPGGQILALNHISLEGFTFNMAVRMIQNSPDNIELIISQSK

FRMPD2_2, Q68DX3 = biological target: FRMPD2_2, Q68DX3
Chain of FRMPD2_2, Q68DX3 (Q68DX3 944-1038): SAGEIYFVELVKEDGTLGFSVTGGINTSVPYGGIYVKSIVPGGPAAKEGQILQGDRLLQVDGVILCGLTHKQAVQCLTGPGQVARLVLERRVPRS

GOPC, Q9HD26 = biological target: GOPC, Q9HD26
GORASP2, Q9H8Y8 = biological target: GORASP2, Q9H8Y8
GRIP1_5, Q9Y3R0 = biological target: T4, GRIP1_5, Q9Y3R0
HTRA2, O43464 = biological target: HTRA2, O43464
Chain of HTRA2, O43464 (O43464 355-458): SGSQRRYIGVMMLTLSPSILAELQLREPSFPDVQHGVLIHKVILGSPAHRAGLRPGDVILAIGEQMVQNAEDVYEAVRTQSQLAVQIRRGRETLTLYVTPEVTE

Inadl_3, Q8NI35 = biological target: Inadl_3, Q8NI35
Chain of Inadl_3, Q8NI35 (Q8NI35 359-469): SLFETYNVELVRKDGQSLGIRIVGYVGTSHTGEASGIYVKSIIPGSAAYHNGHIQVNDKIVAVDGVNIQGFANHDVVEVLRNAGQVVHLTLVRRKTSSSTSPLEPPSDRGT

Inadl_6, Q8NI35 = biological target: Inadl_6, Q8NI35
Chain of Inadl_6, Q8NI35 (Q8NI35 1058-1167): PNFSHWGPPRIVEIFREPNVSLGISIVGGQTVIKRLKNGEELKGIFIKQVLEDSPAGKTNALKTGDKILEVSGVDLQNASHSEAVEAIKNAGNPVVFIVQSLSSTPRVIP

Inadl_8, Q8NI35 = biological target: Inadl_8, Q8NI35
Chain of Inadl_8, Q8NI35 (Q8NI35 1425-1530): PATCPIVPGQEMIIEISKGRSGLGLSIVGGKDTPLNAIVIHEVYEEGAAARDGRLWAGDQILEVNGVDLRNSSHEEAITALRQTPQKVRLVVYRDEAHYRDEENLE

LNX2_2, Q8N448 = biological target: T5, LNX2_2, Q8N448
MAGI2_4, Q86UL8 = biological target: MAGI2_4, Q86UL8
Chain of MAGI2_4, Q86UL8 (Q86UL8 772-865): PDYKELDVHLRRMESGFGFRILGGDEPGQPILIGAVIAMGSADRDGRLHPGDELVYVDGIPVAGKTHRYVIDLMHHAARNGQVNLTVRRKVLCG

MAGI2_5, Q86UL8 = biological target: MAGI2_5, Q86UL8
Chain of MAGI2_5, Q86UL8 (Q86UL8 915-1017): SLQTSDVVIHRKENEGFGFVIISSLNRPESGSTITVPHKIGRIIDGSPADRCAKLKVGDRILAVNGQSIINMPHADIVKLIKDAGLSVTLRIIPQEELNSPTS

MAST1, Q9Y2H9 = biological target: MAST1, Q9Y2H9
Chain of MAST1, Q9Y2H9 (Q9Y2H9 962-1065): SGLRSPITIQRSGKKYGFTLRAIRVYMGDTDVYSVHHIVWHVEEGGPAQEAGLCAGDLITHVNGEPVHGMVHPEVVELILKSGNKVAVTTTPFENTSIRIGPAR

MAST2, Q6P0Q8 = biological target: MAST2, Q6P0Q8
Chain of MAST2, Q6P0Q8 (Q6P0Q8 1099-1202): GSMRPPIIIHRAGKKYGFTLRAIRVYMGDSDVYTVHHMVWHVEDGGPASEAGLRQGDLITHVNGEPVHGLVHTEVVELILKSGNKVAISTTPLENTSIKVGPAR

MPDZ_12, O75970 = biological target: T6, MPDZ_12, O75970
PARD3B_1, Q8TEW8 = biological target: T7, PARD3B_1, Q8TEW8
PICK1, Q9NRD5 = biological target: PICK1, Q9NRD5
Chain of PICK1, Q9NRD5 (Q9NRD5 17-115): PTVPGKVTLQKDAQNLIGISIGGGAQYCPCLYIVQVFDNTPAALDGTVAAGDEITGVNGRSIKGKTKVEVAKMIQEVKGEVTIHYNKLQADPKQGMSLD

PTPN3, P26045 = biological target: PTPN3, P26045
Chain of PTPN3, P26045 (P26045 505-587): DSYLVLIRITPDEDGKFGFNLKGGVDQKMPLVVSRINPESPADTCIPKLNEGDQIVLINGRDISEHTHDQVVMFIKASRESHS

RAPGEF6, Q8TEU7 = biological target: T8, RAPGEF6, Q8TEU7
SCRIB_3, Q14160 = biological target: SCRIB_3, Q14160
Chain of SCRIB_3, Q14160 (Q14160 999-1103): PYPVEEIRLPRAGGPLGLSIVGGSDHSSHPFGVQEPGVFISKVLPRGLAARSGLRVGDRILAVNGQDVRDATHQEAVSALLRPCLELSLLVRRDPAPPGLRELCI

SNTB1, Q13884 = biological target: T9, SNTB1, Q13884
TJP2_1, Q9UDY2 = biological target: TJP2_1, Q9UDY2
Chain of TJP2_1, Q9UDY2 (Q9UDY2 24-128): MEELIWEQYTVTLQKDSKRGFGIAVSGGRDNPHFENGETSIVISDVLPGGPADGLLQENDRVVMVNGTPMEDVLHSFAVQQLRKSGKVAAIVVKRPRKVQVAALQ

TX1BP3, O14907 = biological target: T10, TX1BP3, O14907

Binder	pKd (DLG3_1, Q92796)	pKd (DLG3_2, Q92796)	pKd (DLG4_1, P78352)	pKd (FRMPD1, Q5SYB0)	pKd (FRMPD2_1, Q68DX3)	pKd (FRMPD2_2, Q68DX3)	pKd (GOPC, Q9HD26)	pKd (GORASP2, Q9H8Y8)	pKd (GRIP1_5, Q9Y3R0)	pKd (HTRA2, O43464)	pKd (Inadl_3, Q8NI35)	pKd (Inadl_6, Q8NI35)	pKd (Inadl_8, Q8NI35)	pKd (LNX2_2, Q8N448)	pKd (MAGI2_4, Q86UL8)	pKd (MAGI2_5, Q86UL8)	pKd (MAST1, Q9Y2H9)	pKd (MAST2, Q6P0Q8)	pKd (MPDZ_12, O75970)	pKd (PARD3B_1, Q8TEW8)	further results
B1	below the threshold	below the threshold	3.69	below the threshold	below the threshold	below the threshold	4.52	3.56	below the threshold	below the threshold	below the threshold	below the threshold	4.61	below the threshold	below the threshold	below the threshold	4.09	4.29	below the threshold	below the threshold	pKd (PICK1, Q9NRD5): below the threshold; pKd (PTPN3, P26045): below the threshold; pKd (RAPGEF6, Q8TEU7): below the threshold; pKd (SCRIB_3, Q14160): below the threshold; pKd (SNTB1, Q13884): below the threshold; pKd (TJP2_1, Q9UDY2): below the threshold; pKd (TX1BP3, O14907): below the threshold
B2	below the threshold	4.01	below the threshold	below the threshold	below the threshold	below the threshold	below the threshold	below the threshold	below the threshold	below the threshold	below the threshold	below the threshold	below the threshold	4.37	below the threshold	below the threshold	3.72	4.04	below the threshold	below the threshold	pKd (PICK1, Q9NRD5): 4.38; pKd (PTPN3, P26045): 3.79; pKd (RAPGEF6, Q8TEU7): below the threshold; pKd (SCRIB_3, Q14160): below the threshold; pKd (SNTB1, Q13884): below the threshold; pKd (TJP2_1, Q9UDY2): below the threshold; pKd (TX1BP3, O14907): below the threshold
B3	below the threshold	3.48	below the threshold	below the threshold	below the threshold	below the threshold	below the threshold	below the threshold	below the threshold	below the threshold	3.59	below the threshold	below the threshold	below the threshold	below the threshold	3.47	4.12	4.56	below the threshold	below the threshold	pKd (PICK1, Q9NRD5): 4.09; pKd (PTPN3, P26045): 4.1; pKd (RAPGEF6, Q8TEU7): below the threshold; pKd (SCRIB_3, Q14160): below the threshold; pKd (SNTB1, Q13884): below the threshold; pKd (TJP2_1, Q9UDY2): below the threshold; pKd (TX1BP3, O14907): below the threshold
B4	below the threshold	4.08	3.82	below the threshold	below the threshold	below the threshold	3.87	below the threshold	below the threshold	below the threshold	below the threshold	below the threshold	4.77	below the threshold	3.69	below the threshold	below the threshold	5.05	below the threshold	below the threshold	pKd (PICK1, Q9NRD5): below the threshold; pKd (PTPN3, P26045): below the threshold; pKd (RAPGEF6, Q8TEU7): below the threshold; pKd (SCRIB_3, Q14160): 3.81; pKd (SNTB1, Q13884): 3.64; pKd (TJP2_1, Q9UDY2): 3.61; pKd (TX1BP3, O14907): 3.51
